From patent publication US20200405868A1, “GEL-FORMING POLYPEPTIDES” (priority 2018, published 2020)
The star is where a group is joined. Palmitoyl = CCCCCCCCCCCCCCCC(=O)*

Key:
[1] = molecular target: FITC-labled GnRH molecule (a peptide) (UniProt P01148); assay: Centricon filter release assay: FITC-GnRH that passed into the lower chamber with carrier at 1 mg/100 ml (control without carrier 72.50)
[2] = molecular target: FITC-labled GnRH molecule (a peptide) (UniProt P01148); assay: Centricon filter release assay: FITC-GnRH that passed into the lower chamber with carrier at 1 mg/10 ml (control without carrier 72.50); a lower reading means more retention with the carrier

B1: SEQ ID NO:119, Pal-SSPHSY-NH2, gel-forming peptide (peptide)
peptide: Palmitoyl-SSPHSY-NH2
SMILES: CCCCCCCCCCCCCCCC(=O)N[C@@H](CO)C(=O)N[C@@H](CO)C(=O)N1CCC[C@H]1C(=O)N[C@@H](Cc1c[nH]cn1)C(=O)N[C@@H](CO)C(=O)N[C@@H](Cc1ccc(O)cc1)C(N)=O
Fluorescent Reading (average of duplicates) [1]: 58.4 | Fluorescent Reading (average of duplicates) [2]: 9
